In paper PMC10942606:

How the values were obtained:
Assay in all cases: EMSA
Pcf1_WHD = biological target: T1, Pcf1_WHD (Schizosaccharomyces pombe, UniProt Q1MTN9 471-544)
T1 sequence: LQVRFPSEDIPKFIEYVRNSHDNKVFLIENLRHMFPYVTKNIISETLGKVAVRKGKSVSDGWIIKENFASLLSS

[1] = biological target: Pcf1-ΔWHD;Pcf2;Pcf3;SpPCNA (Schizosaccharomyces …, UniProt Q1MTN9;O13985;Q9Y825;Q03392 1-470;1-512;1-408;1-260, del471-544|||)
Pcf1 WT;Pcf2;Pcf3;SpPCNA = Pcf1 WT;Pcf2;Pcf3;SpPCNA (Schizosaccharomyces …, UniProt Q1MTN9;O13985;Q9Y825;Q03392 1-544;1-512;1-408;1-260, |||)
Sequence of Pcf1 WT;Pcf2;Pcf3;SpPCNA (Q03392 whole entry, one chain of several): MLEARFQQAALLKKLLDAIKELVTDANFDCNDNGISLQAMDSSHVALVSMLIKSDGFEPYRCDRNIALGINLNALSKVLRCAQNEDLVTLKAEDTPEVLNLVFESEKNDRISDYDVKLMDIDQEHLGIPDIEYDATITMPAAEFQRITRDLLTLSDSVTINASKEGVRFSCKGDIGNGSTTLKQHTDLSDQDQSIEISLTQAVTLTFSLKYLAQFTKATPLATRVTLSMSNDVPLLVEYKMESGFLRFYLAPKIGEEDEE

Pcf1 WT;Pcf2;Pcf3 = biological target: T2, Pcf1 WT;Pcf2;Pcf3 (Schizosaccharomyces …, UniProt Q1MTN9;O13985;Q9Y825 1-544;1-512;1-408, ||)
T2 sequence 1: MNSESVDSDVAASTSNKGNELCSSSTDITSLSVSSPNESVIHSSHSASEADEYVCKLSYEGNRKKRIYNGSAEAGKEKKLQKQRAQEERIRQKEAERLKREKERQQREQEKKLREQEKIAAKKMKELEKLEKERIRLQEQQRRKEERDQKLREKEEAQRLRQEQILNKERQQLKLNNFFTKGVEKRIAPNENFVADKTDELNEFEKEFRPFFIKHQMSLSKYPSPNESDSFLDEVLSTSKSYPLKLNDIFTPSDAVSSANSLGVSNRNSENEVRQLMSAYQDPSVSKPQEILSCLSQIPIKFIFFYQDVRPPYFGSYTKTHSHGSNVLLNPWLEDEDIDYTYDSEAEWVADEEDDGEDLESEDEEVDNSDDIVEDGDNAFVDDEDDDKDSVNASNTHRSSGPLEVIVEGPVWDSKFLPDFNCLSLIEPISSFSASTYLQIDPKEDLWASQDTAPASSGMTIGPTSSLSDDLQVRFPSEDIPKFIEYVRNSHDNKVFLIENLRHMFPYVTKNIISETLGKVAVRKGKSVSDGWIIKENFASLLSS
T2 sequence 2: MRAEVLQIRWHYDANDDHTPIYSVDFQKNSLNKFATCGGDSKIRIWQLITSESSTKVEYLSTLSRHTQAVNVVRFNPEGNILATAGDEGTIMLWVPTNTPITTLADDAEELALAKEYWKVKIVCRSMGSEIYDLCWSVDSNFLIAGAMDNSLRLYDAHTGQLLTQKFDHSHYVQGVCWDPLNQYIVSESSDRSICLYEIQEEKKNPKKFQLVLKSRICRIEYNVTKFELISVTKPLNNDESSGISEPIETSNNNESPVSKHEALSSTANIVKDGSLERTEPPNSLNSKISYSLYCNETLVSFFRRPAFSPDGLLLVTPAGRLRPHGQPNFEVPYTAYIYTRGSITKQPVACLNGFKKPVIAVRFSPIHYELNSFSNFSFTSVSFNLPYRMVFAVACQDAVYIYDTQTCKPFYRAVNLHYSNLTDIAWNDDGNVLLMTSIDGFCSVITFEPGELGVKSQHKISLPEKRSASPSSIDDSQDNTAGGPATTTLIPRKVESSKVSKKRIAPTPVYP
T2 sequence 3: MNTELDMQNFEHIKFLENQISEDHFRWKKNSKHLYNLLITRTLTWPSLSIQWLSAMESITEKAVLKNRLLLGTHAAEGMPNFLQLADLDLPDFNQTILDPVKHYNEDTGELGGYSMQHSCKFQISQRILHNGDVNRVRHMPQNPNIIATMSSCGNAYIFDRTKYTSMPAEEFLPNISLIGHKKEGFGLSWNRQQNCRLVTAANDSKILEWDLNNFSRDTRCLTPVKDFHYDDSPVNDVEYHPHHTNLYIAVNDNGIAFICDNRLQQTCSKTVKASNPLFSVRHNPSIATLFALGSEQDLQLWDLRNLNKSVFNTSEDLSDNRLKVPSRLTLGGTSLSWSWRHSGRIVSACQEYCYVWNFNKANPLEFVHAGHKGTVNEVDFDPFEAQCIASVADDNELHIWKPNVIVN

Sequence of Pcf1-ΔWHD;Pcf2;Pcf3;SpPCNA (Q03392 whole entry, stated change not applied, one chain of several): as the sequence (Q03392 whole entry, one chain of several) above

B1: 40 bp dsDNA (dsDNA)
DNA 1: ATCAATATCCACCTGCAGATACTACCAAAAGTGTATTTGG
DNA 2: CCAAATACACTTTTGGTAGTATCTGCAGGTGGATATTGAT
Pcf1_WHD
  binding result: no binding
[1]
  binding result: binds
Pcf1 WT;Pcf2;Pcf3;SpPCNA
  binding result: binds
Pcf1 WT;Pcf2;Pcf3
  apparent K (half saturation): 3.4 ± 0.4 µM
